T1: FcγRIIb extracellular domain with C-terminal His tag (human, UniProt P31994 43-217)
T1 construct: extracellular domain; Expressed in FreeStyle293 cells; used as analyte in Biacore; also called FcgRIIb; 2b; not shown: C-terminal His tag
T1 sequence (looked up): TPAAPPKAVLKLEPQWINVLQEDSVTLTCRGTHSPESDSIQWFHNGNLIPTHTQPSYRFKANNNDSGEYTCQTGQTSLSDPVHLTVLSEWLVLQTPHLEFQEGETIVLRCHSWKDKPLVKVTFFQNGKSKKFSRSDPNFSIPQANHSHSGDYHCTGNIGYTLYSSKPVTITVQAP


Biological target: T1, FcγRIIb extracellular domain with …
Test: SPR (Biacore), antibody captured on antigen-peptide chip, FcgRIIb as analyte; binding relative to GpH7-A5/GpH7-B3/GpL16-k0 (HeCon Ab) = 100

Binder	He/Con_2b
GpH7-A5/GpH7-B3 variant S239_01G/GpL16-k0 (He Ab) (antibody, human IgG1, kappa, Substitution in one H chain only; position in EU numbering; also called S239G heterodimerized antibody) heavy 1: not shown heavy 2: not shown light: DIVMTQSPLSLPVTPGEPASISCQASESLVHSNRNTYLHWYLQKPGQSPQLLIYKVSNRFSGVPDRFSGSGSGTDFTLKISRVEAEDVGVYYCSQNTHVPPTFGQGTKVEIERTVAAPSVFIFPPSDEQLKSGTASVVCLLNNFYPREAKVQWKVDNALQSGNSQESVTEQDSKDSTYSLSSTLTLSKADYEKHKVYACEVTHQGLSSPVTKSFNRGEC	144 % of control
GpH7-A5/GpH7-B3 variant S267_10E/GpL16-k0 (He Ab) (antibody, human IgG1, kappa, Substitution in one H chain only; position in EU numbering; also called S267E heterodimerized antibody) heavy 1: not shown heavy 2: not shown light: DIVMTQSPLSLPVTPGEPASISCQASESLVHSNRNTYLHWYLQKPGQSPQLLIYKVSNRFSGVPDRFSGSGSGTDFTLKISRVEAEDVGVYYCSQNTHVPPTFGQGTKVEIERTVAAPSVFIFPPSDEQLKSGTASVVCLLNNFYPREAKVQWKVDNALQSGNSQESVTEQDSKDSTYSLSSTLTLSKADYEKHKVYACEVTHQGLSSPVTKSFNRGEC	379 % of control
GpH7-A5/GpH7-B3 variant S239_07I/GpL16-k0 (He Ab) (antibody, human IgG1, kappa, Substitution in one H chain only; position in EU numbering; also called S239I heterodimerized antibody) heavy 1: not shown heavy 2: not shown light: DIVMTQSPLSLPVTPGEPASISCQASESLVHSNRNTYLHWYLQKPGQSPQLLIYKVSNRFSGVPDRFSGSGSGTDFTLKISRVEAEDVGVYYCSQNTHVPPTFGQGTKVEIERTVAAPSVFIFPPSDEQLKSGTASVVCLLNNFYPREAKVQWKVDNALQSGNSQESVTEQDSKDSTYSLSSTLTLSKADYEKHKVYACEVTHQGLSSPVTKSFNRGEC	107 % of control
GpH7-A5/GpH7-B3 variant P271_01G/GpL16-k0 (He Ab) (antibody, human IgG1, kappa, Substitution in one H chain only; position in EU numbering; also called P271G heterodimerized antibody) heavy 1: not shown heavy 2: not shown light: DIVMTQSPLSLPVTPGEPASISCQASESLVHSNRNTYLHWYLQKPGQSPQLLIYKVSNRFSGVPDRFSGSGSGTDFTLKISRVEAEDVGVYYCSQNTHVPPTFGQGTKVEIERTVAAPSVFIFPPSDEQLKSGTASVVCLLNNFYPREAKVQWKVDNALQSGNSQESVTEQDSKDSTYSLSSTLTLSKADYEKHKVYACEVTHQGLSSPVTKSFNRGEC	193 % of control
GpH7-A5/GpH7-B3 variant P271_08L/GpL16-k0 (He Ab) (antibody, human IgG1, kappa, Substitution in one H chain only; position in EU numbering; also called P271L heterodimerized antibody) heavy 1: not shown heavy 2: not shown light: DIVMTQSPLSLPVTPGEPASISCQASESLVHSNRNTYLHWYLQKPGQSPQLLIYKVSNRFSGVPDRFSGSGSGTDFTLKISRVEAEDVGVYYCSQNTHVPPTFGQGTKVEIERTVAAPSVFIFPPSDEQLKSGTASVVCLLNNFYPREAKVQWKVDNALQSGNSQESVTEQDSKDSTYSLSSTLTLSKADYEKHKVYACEVTHQGLSSPVTKSFNRGEC	103 % of control
GpH7-A5/GpH7-B3 variant S267_09D/GpL16-k0 (He Ab) (antibody, human IgG1, kappa, Substitution in one H chain only; position in EU numbering; also called S267D heterodimerized antibody) heavy 1: not shown heavy 2: not shown light: DIVMTQSPLSLPVTPGEPASISCQASESLVHSNRNTYLHWYLQKPGQSPQLLIYKVSNRFSGVPDRFSGSGSGTDFTLKISRVEAEDVGVYYCSQNTHVPPTFGQGTKVEIERTVAAPSVFIFPPSDEQLKSGTASVVCLLNNFYPREAKVQWKVDNALQSGNSQESVTEQDSKDSTYSLSSTLTLSKADYEKHKVYACEVTHQGLSSPVTKSFNRGEC	310 % of control
GpH7-A5/GpH7-B3 variant S267_08L/GpL16-k0 (He Ab) (antibody, human IgG1, kappa, Substitution in one H chain only; position in EU numbering; also called S267L heterodimerized antibody) heavy 1: not shown heavy 2: not shown light: DIVMTQSPLSLPVTPGEPASISCQASESLVHSNRNTYLHWYLQKPGQSPQLLIYKVSNRFSGVPDRFSGSGSGTDFTLKISRVEAEDVGVYYCSQNTHVPPTFGQGTKVEIERTVAAPSVFIFPPSDEQLKSGTASVVCLLNNFYPREAKVQWKVDNALQSGNSQESVTEQDSKDSTYSLSSTLTLSKADYEKHKVYACEVTHQGLSSPVTKSFNRGEC	109 % of control
GpH7-A5/GpH7-B3 variant S267_02A/GpL16-k0 (He Ab) (antibody, human IgG1, kappa, Substitution in one H chain only; position in EU numbering; also called S267A heterodimerized antibody) heavy 1: not shown heavy 2: not shown light: DIVMTQSPLSLPVTPGEPASISCQASESLVHSNRNTYLHWYLQKPGQSPQLLIYKVSNRFSGVPDRFSGSGSGTDFTLKISRVEAEDVGVYYCSQNTHVPPTFGQGTKVEIERTVAAPSVFIFPPSDEQLKSGTASVVCLLNNFYPREAKVQWKVDNALQSGNSQESVTEQDSKDSTYSLSSTLTLSKADYEKHKVYACEVTHQGLSSPVTKSFNRGEC	243 % of control
GpH7-A5/GpH7-B3 variant L328_19Q/GpL16-k0 (He Ab) (antibody, human IgG1, kappa, Substitution in one H chain only; position in EU numbering; also called L328Q heterodimerized antibody) heavy 1: not shown heavy 2: not shown light: DIVMTQSPLSLPVTPGEPASISCQASESLVHSNRNTYLHWYLQKPGQSPQLLIYKVSNRFSGVPDRFSGSGSGTDFTLKISRVEAEDVGVYYCSQNTHVPPTFGQGTKVEIERTVAAPSVFIFPPSDEQLKSGTASVVCLLNNFYPREAKVQWKVDNALQSGNSQESVTEQDSKDSTYSLSSTLTLSKADYEKHKVYACEVTHQGLSSPVTKSFNRGEC	105 % of control
GpH7-A5/GpH7-B3 variant L328_14T/GpL16-k0 (He Ab) (antibody, human IgG1, kappa, Substitution in one H chain only; position in EU numbering; also called L328T heterodimerized antibody) heavy 1: not shown heavy 2: not shown light: DIVMTQSPLSLPVTPGEPASISCQASESLVHSNRNTYLHWYLQKPGQSPQLLIYKVSNRFSGVPDRFSGSGSGTDFTLKISRVEAEDVGVYYCSQNTHVPPTFGQGTKVEIERTVAAPSVFIFPPSDEQLKSGTASVVCLLNNFYPREAKVQWKVDNALQSGNSQESVTEQDSKDSTYSLSSTLTLSKADYEKHKVYACEVTHQGLSSPVTKSFNRGEC	141 % of control
GpH7-A5/GpH7-B3 variant S239_18N/GpL16-k0 (He Ab) (antibody, human IgG1, kappa, Substitution in one H chain only; position in EU numbering; also called S239N heterodimerized antibody) heavy 1: not shown heavy 2: not shown light: DIVMTQSPLSLPVTPGEPASISCQASESLVHSNRNTYLHWYLQKPGQSPQLLIYKVSNRFSGVPDRFSGSGSGTDFTLKISRVEAEDVGVYYCSQNTHVPPTFGQGTKVEIERTVAAPSVFIFPPSDEQLKSGTASVVCLLNNFYPREAKVQWKVDNALQSGNSQESVTEQDSKDSTYSLSSTLTLSKADYEKHKVYACEVTHQGLSSPVTKSFNRGEC	119 % of control
